From patent US20230192860A1 (Bristol-Myers Squibb, published 2023)
Values joined by “and” are separate entries in the source; they are usually repeats but may differ in a detail not shown here. Equal values may be shown once.

What was measured:
[1] = target: T1, monovalent hVISTA-ECD (amino acids 32-193 of SEQ ID NO: 1 with a 7xHis tail) (human, UniProt Q9H7M9 33-193); experiment: SPR 37C, Ab on Protein A, hVISTA-ECD 50-5 nM, pH 6.0, average
T1 construct: analyte of the SPR assays; also called huVISTA-His; human VISTA-ECD
T1 sequence (Q9H7M9 other isoform, or with tags, fused parts or gaps limits assumed): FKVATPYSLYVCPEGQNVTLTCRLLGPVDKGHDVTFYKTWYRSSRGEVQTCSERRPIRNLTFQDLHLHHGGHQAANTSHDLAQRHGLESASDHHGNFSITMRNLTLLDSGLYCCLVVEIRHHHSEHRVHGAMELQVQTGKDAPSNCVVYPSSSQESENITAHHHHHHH
Experimental: Binding of several preparations of each of the ‘029 progeny clones and of the parent ‘029 antibodies, formatted as IgG1.3 antibodies, to human VISTA at pH 6.0 and 7.4 was measured by Surface plasmon resonance (SPR). SPR analysis was performed to measure koff and KD binding affinity measurements for VISTA Abs at acidic and neutral pHs using a Biacore® T100 instrument (GE Healthcare). […] Antibodies were diluted to 25 nM in PBST pH 7.4, and were captured across active biosensor flow cells at 5 ul/min for 60 seconds. A concentration series of 50 - 5 nM monovalent hVISTA-ECD (SEQ ID NO: 325) was prepared in pH 7.4 and 6.0 running buffers, and was injected over the captured antibodies at 40 ul/min to measure association and dissociation. Two 15 second injections of 10 mM glycine pH 1.5 were used to regenerate the Protein A capture surface between assay cycles. Rate constants ka (kₒₙ) and kd (koff) were derived from reference flow cell and 0 nM blank-subtracted sensorgrams, and were fit to a 1:1 binding model in Biacore® T200 Evaluation Software v.2.0. The affinity constant, KD was calculated as the ratio of rate constants koff/kₒₙ for each VISTA antibody.

hVISTA-ECD 6-His tag [2] = target: T2, hVISTA-ECD 6-His tag (human, UniProt Q9H7M9 33-193); experiment: SPR, Ab on Protein A, hVISTA analyte, pH 6.45
T2 construct: also called monovalent hVISTA-ECD; human VISTA
T2 sequence (Q9H7M9 other isoform, or with tags, fused parts or gaps limits assumed): as above

hVISTA-ECD 6-His tag [3] = target: T2, hVISTA-ECD 6-His tag; experiment: SPR, Ab on Protein A, hVISTA analyte, pH 6.9
Experimental: Further binding kinetic experiments were performed at various pHs on VISTA antibodies described herein by SPR as generally described in Example 9 above. Antibodies were normalized to 50 nM concentration in PBST pH 7.4 and captured on a Protein A CM5 chip (ID 4931) by injecting for 45 seconds at a 5 µL/min flow rate. An 8-point human VISTA titration ([…]) was prepared in PBST at pH 7.4, 6.9, 6.45, and 6.0. Titrations were injected over the captured antibodies for 180 seconds at 30 µL/min. Sensorgrams were fit to a 1:1 binding model in T200 evaluation software and the kinetic constants were reported.
Each table reports the data at one of the four tested pHs (7.4, 6.9, 6.45, and 6.0, respectively). The 8-point hVISTA titration used in these assays was chosen to provide increased confidence in kinetic values reported at neutral pH conditions. A relatively stringent cutoff for non-binding was applied in this assay. Certain progeny of P1-061029 antibody (P1-068757, ‘759, ‘765, ‘771, and ‘775) show no binding to hVISTA at micromolar concentrations at pH 7.4, while ‘761 and ‘767 show no binding to hVISTA at 100 nM at pH 7.4 but do show binding to hVISTA at micromolar concentrations.

hVISTA-ECD 6-His tag [4] = target: T2, hVISTA-ECD 6-His tag; experiment: SPR, Ab on Protein A, hVISTA analyte, pH 6.0

Binder	Kd [1] [nM]	koff [1] [s⁻¹]	kon [1] [M⁻¹ s⁻¹]	other results
P1-068769 (antibody, human IgG1, kappa, V domains shown, IgG1.3) VH: EVQLVESGGGLVQPGKSLRLSCAASGFTLEDEAMHWVRQAPGKGLEWVSGINWNSDHIGYADSVKGRFTISRDNAKNSLYLQMNSLRTEDTALYYCAKVPGYSGGWIDAEDDWGQGTMVTVSS VL: not shown	55	0.04	810000	–
P1-068765 (antibody, human IgG1, kappa, V domains shown, IgG1.3; also called P1-068765-10) VH: EVQLVESGGGLVQPGKSLRLSCAASGFTDEDYAMHWVRQAPGKGLEWVSGINWNSEEIGYADSVKGRFTISRDNAKNSLYLQMNSLRTEDTALYYCAKVPGYSGGWIDAEDDWGQGTMVTVSS VL: not shown	19	0.007	370000	–
P1-069059 (antibody, human IgG1, kappa, V domains shown, IgG1.3) VH: EVQLVESGGGLVQPGKSLRLSCAASGFTLEDYAMHWVRQAPGKGLEWVSGINWNSDHIGYADSVKGRFTISRDNAKNSLYLQMNSLRTEDTALYYCAKVPGYSGGWIDAEDDWGQGTMVTVSS VL: not shown	4.8	0.0016	340000	–
P1-072000 (P1-061029_F100fE_V102D) (antibody, human IgG1, kappa, V domains shown, also called P1-072000-3; P1-72000) VH: EVQLVESGGGLVQPGKSLRLSCAASGFTLDDYAMHWVRQAPGKGLEWVSGINWNSANIGYADSVKGRFTISRDNAKNSLYLQMNSLRTEDTALYYCAKVPGYSGGWIDAEDDWGQGTMVTVSS VL: not shown	–	–	–	Kd (hVISTA-ECD 6-His tag [2]): 47 nM and 27 nM; koff (hVISTA-ECD 6-His tag [2]): 0.0053 s⁻¹ and 0.0044 s⁻¹; kon (hVISTA-ECD 6-His tag [2]): 110000 M⁻¹ s⁻¹ and 160000 M⁻¹ s⁻¹; Kd (hVISTA-ECD 6-His tag [3]): 280 nM and 250 nM; koff (hVISTA-ECD 6-His tag [3]): 0.011 s⁻¹; kon (hVISTA-ECD 6-His tag [3]): 39000 M⁻¹ s⁻¹ and 42000 M⁻¹ s⁻¹; Kd (hVISTA-ECD 6-His tag [4]): 11 nM and 5.8 nM; koff (hVISTA-ECD 6-His tag [4]): 0.0027 s⁻¹ and 0.0026 s⁻¹; kon (hVISTA-ECD 6-His tag [4]): 250000 M⁻¹ s⁻¹ and 450000 M⁻¹ s⁻¹
P1-068771 (antibody, human IgG1, kappa, V domains shown, IgG1.3; also called P1-068771-10) VH: EVQLVESGGGLVQPGKSLRLSCAASGFTLEDEAMHWVRQAPGKGLEWVSGINWNSHEIGYADSVKGRFTISRDNAKNSLYLQMNSLRTEDTALYYCAKVPGYSGGWIDAEDDWGQGTMVTVSS VL: not shown	25	0.018	760000	–
P1-068759 (antibody, human IgG1, kappa, V domains shown, IgG1.3; also called P1-068759-9) VH: EVQLVESGGGLVQPGKSLRLSCAASGFTLEDEAMHWVRQAPGKGLEWVSGIDWNSENIGYADSVKGRFTISRDNAKNSLYLQMNSLRTEDTALYYCAKVPGYSGGWIDAEDDWGQGTMVTVSS VL: not shown	60	0.08	1.3e+06	–
P1-068775 (antibody, human IgG1, kappa, V domains shown, IgG1.3; also called P1-068775-8) VH: EVQLVESGGGLVQPGKSLRLSCAASGFTLEDEAMHWVRQAPGKGLEWVSGIDWNSEEIGYADSVKGRFTISRDNAKNSLYLQMNSLRTEDTALYYCAKVPGYSHGWIDAEDDWGQGTMVTVSS VL: not shown	23	0.047	1.8e+06	–

More lines, main results first:

Kd [1] [nM]	koff [1] [s⁻¹]	kon [1] [M⁻¹ s⁻¹]	Binder	other results
2.5	0.0011	430000	P1-069061 (antibody, human IgG1, kappa, V domains shown, IgG1.3) VH: EVQLVESGGGLVQPGKSLRLSCAASGFTLEDYAMHWVRQAPGKGLEWVSGINWNSAEIGYADSVKGRFTISRDNAKNSLYLQMNSLRTEDTALYYCAKVPGYSGGWIDAEDDWGQGTMVTVSS VL: not shown	–
9.4	0.0058	610000	P1-069073 (antibody, human IgG1, kappa, V domains shown, IgG1.3) VH: EVQLVESGGGLVQPGKSLRLSCAASGFTLEDEAMHWVRQAPGKGLEWVSGINWNSAEIGYADSVKGRFTISRDNAKNSLYLQMNSLRTEDTALYYCAKVPGYSGGWIDAEDVWGQGTMVTVSS VL: not shown	–
